From PMC5873240

How the values were obtained:
[1] = biological target: Kv7.2-hABCD; experiment: NMR spectra
[2] = biological target: Kv7.2-hAB[Δ6L]; experiment: NMR solution structure

Substance	stoichiometry N [1]	stoichiometry N [2]
Kv7.2-hABCD (domain or fragment)	4	–
calmodulin (from UniProt P0DP23 1-149) (natural protein)	–	1
